Biological target: T1, N-terminal cytosolic domain of Band 3 (residues 1–395) (human, UniProt P02730 1-395)
T1 sequence (looked up): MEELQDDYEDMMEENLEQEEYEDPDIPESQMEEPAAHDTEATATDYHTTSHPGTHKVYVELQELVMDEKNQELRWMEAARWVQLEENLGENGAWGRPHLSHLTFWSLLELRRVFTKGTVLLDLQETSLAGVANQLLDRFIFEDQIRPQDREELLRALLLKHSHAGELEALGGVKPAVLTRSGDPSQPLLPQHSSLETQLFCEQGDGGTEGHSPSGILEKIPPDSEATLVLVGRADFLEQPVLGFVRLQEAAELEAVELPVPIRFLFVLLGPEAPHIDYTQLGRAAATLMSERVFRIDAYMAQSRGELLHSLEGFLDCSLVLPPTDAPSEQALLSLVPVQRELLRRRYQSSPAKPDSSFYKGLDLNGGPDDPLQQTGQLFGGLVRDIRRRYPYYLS
Assay: ITC

Kd: 1180 nM
B1: recombinantly-expressed human GAPDH (enzyme)
chain: not shown

— paper PMC12923992 (Cell metabolism, 2026)
